One test has as its target human glucagon receptor (human, UniProt P47871 26-477). Put plainly: cell-based or functional assay.
The target in another test is human GLP-1 receptor (human, UniProt P43220 24-463). Put plainly: cell-based or functional assay.

Here are results for four molecules from patent US20230322887A1 (SHANGHAI MINWEI BIOTECHNOLOGY, published 2023).

Sequence of human glucagon receptor (P47871 26-477): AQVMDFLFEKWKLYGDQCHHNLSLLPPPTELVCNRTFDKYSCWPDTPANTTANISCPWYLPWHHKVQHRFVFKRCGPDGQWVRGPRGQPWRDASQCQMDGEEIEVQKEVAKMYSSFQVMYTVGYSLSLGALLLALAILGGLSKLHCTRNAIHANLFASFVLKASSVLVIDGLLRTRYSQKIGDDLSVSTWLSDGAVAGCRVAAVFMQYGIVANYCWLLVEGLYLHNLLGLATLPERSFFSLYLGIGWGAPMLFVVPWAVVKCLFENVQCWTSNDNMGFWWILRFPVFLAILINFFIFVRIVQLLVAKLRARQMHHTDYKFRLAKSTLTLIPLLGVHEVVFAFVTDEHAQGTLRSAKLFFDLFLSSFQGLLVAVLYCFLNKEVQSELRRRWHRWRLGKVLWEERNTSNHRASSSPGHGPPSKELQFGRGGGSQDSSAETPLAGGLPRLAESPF

“GLP-1 (from UniProt P01275 92-128) (ligand)”: in the test with human glucagon receptor, the EC50 human glucagon-R (CRE-luciferase reporter cells) is > 1000 µM. HSQGTFTSDYSKYLDEQAAKEFIAWLIAGGPSSGAPPPS [GLP-1/glucagon dual agonist polypeptide expressed by clone 3D9]: the “% RLUGLP-1 (CRE-luciferase reporter, against the 100 ng/ml GLP-1 positive control)” value with human GLP-1 receptor is 286%. Besides, the “% RLUGlucagon (CRE-luciferase reporter, against the 100 ng/ml glucagon positive control)” value (from here on “% RLUGlucagon”) with human glucagon receptor is 197%. On to HSQGTFTSDYSKYLDEQRAKEFVAWLIAGGPSSGAPPPS [GLP-1/glucagon dual agonist polypeptide expressed by clone 12C6], for which the “% RLUGLP-1 (CRE-luciferase reporter, against the 100 ng/ml GLP-1 positive control)” value in the test with human GLP-1 receptor was 183%. In the test with human glucagon receptor, the “% RLUGlucagon” value was 112%.

Consider HSQGTFTSDYSKYLDEQRAKDFIAWLIAGGPSSGAPPPS [GLP-1/glucagon dual agonist polypeptide expressed by clone 6B7], for which the “% RLUGLP-1 (CRE-luciferase reporter, against the 100 ng/ml GLP-1 positive control)” value with human GLP-1 receptor amounted to 123%. Also, in the test with human glucagon receptor, the “% RLUGlucagon” value is 156%.
